Our source for the kcat and Km values is patent US7456001B2, “Lipoxygenase” (Novozymes A/S, priority 2000, dated 2008).

The target of one series is lipoxygenase (Gaeumannomyces tritici, UniProt Q8X150). Put plainly: Determination of substrate specificity (Michaelis-Menten kinetics, hydroperoxide formation at 234 nm). The conditions noted are these: lipoxygenase produced as in Example 4, standard assay, 25° C., pH 7.0.
For series [1], the system named is CCCCC/C=C\C/C=C\C/C=C\C/C=C\CCCC(=O)O. Put plainly: purified protein, by the assay type. The following applies: other: lipoxygenase produced as in Example 4, standard assay, 25° C., pH 7.0.
For series [2], the system named is CCCCC/C=C\C/C=C\CCCCCCCCO
The experiment in a line: purified protein, by the assay type. The conditions noted are these: other: lipoxygenase produced as in Example 4, standard assay, 25° C., pH 7.0.

Series [3] relates to CCCCC/C=C\C/C=C\CCCCCCCC(=O)OC. Put plainly: purified protein, by the assay type. The following applies: other: lipoxygenase produced as in Example 4, standard assay, 25° C., pH 7.0.

lipoxygenase, sequence (Q8X150 17-618): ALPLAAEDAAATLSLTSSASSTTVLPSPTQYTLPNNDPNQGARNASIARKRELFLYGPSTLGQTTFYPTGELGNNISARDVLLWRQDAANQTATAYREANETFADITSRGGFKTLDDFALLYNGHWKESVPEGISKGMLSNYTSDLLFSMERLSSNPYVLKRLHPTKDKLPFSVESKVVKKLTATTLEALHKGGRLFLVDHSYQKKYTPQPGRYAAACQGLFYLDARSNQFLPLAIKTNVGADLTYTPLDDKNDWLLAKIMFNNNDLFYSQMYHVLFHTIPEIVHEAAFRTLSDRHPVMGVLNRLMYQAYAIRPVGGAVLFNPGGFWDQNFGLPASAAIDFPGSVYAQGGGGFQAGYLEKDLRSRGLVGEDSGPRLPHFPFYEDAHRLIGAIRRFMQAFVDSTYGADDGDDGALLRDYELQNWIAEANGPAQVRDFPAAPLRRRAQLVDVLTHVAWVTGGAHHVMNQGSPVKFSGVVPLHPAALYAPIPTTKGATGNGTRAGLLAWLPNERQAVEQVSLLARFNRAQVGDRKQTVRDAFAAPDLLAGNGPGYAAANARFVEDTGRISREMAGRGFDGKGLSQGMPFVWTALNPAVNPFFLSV

`CCCCC/C=C\C/C=C\CCCCCCCC(=O)O` [Linoleic acid]: the kcat on lipoxygenase (kcat (or Vmax)) worked out at 5.63 micro-mol/min/mg. Moreover, the Km (as a rule, the substrate concentration at which the rate is half of its maximum) at lipoxygenase stood at 6.8 µM.

Take lipoxygenase (Gaeumannomyces tritici): the Km was determined as 17.5 µM in series [1], 3.4 µM in series [2] and 164 µM in series [3].
